Results as given in patent publication US20190375823A1 (Zymeworks, published 2019).

Key:
CD19 on Raji B cells = molecular target: T1, CD19 on Raji B cells (UniProt P15391 20-556, limits assumed); assay: FACS on Raji cells (CD19)
T1 construct: whole, on cells; also called Raji CD19 B cells
T1 sequence (looked up): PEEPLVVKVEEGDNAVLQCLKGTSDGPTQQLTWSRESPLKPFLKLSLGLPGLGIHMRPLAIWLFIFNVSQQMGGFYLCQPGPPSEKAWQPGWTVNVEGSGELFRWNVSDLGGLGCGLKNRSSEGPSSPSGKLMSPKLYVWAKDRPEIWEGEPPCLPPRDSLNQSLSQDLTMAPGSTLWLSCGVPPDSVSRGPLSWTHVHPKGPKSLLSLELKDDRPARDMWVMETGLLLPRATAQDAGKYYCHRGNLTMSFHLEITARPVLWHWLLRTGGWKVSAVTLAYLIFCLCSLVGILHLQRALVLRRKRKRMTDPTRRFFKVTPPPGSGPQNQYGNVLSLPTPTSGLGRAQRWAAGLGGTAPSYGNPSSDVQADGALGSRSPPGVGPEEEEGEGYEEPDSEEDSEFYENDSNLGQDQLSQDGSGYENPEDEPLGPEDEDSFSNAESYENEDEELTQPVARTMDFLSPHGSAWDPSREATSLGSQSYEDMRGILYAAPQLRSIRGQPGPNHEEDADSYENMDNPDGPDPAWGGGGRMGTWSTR

Human FcRn (hFcRn) = molecular target: T2, Human FcRn (hFcRn) (human, UniProt P55899 24-297; P61769 21-119, limits assumed); assay: SPR, hFcRn immobilized, v1378 flowed over at pH 6.0
T2 construct: also called neonatal Fc receptor
T2 sequence (P55899 24-297 limits assumed, chain 1 of 2): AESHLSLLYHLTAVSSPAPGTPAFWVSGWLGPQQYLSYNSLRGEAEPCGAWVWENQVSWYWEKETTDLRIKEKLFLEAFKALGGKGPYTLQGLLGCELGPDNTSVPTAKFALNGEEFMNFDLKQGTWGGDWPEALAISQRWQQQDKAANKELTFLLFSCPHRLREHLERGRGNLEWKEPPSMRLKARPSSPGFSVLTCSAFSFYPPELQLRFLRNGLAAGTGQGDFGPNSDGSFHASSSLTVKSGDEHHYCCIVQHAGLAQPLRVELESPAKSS
T2 sequence (P61769 21-119 limits assumed, chain 2 of 2): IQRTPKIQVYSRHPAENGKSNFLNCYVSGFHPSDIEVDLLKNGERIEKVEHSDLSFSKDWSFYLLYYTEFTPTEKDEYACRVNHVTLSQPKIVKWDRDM
Description: Methods are identical to Example 2, except the directionality of the assay was reversed.

[1] = molecular target: the molecule itself; assay: native gel after co-expression (1:1 DNA level)

B1: V1093 (bispecific antibody)
anti-CD19 scFv fused to the N terminus of transporter polypeptide 1 (albumin 1-337): DIQLTQSPASLAVSLGQRATISCKASQSVDYDGDSYLNWYQQIPGQPPKLLIYDASNLVSGIPPRFSGSGSGTDFTLNIHPVEKVDAATYHCQQSTEDPWTFGGGTKLEIKGGGGSGGGGSGGGGSQVQLQQSGAELVRPGSSVKISCKASGYAFSSYWMNWVKQRPGQGLEWIGQIWPGDGDTNYNGKFKGKATLTADESSSTAYMQLSSLASEDSAVYFCARRETTTVGRYYYAMDYWGQGTTVTVSSGGSDAHKSEVAHRFKDLGEENFKALVLIAFAQYLQQCPFEDHVKLVNEVTEFAKTCVADESAENCDKSLHTLFGDKLCTVATLRETYGEMADCCAKQEPERNECFLQHKDDNPNLPRLVRPEVDVMCTAFHDNEETFLKKYLYEIARRHPYFYAPELLFFAKRYKAAFTECCQAADKAACLLPKLDELRDEGKASSAKQRLKCASLQKFGERAFKAWAVARLSQRFPKAEFAEVSKLVTDLTKVHTECCHGDLLECADDRADLAKYICENQDSISSKLKECCEKPLLEKSHCIAEVENDEMPADLPSLAADFVESKDVCKNYAEAKDVFLGMFLYEYARA
transporter polypeptide 2 (albumin 342-585) with anti-CD3 scFv at the C terminus: not shown
CD19 on Raji B cells
  Kd: 49 nM

B2: v1378: AlbuCORE_1 (ABH2) with anti-HER3 at the N terminus of fragment 1 and anti-HER2 (4D5) at the N terminus of fragment 2 (bispecific antibody)
chain 1: QVQLQESGGGLVKPGGSLRLSCAASGFTFSSYWMSWVRQAPGKGLEWVANINRDGSASYYVDSVKGRFTISRDDAKNSLYLQMNSLRAEDTAVYYCARDRGVGYFDLWGRGTLVTVSSASTGGGGSGGGGSGGGGSQSALTQPASVSGSPGQSITISCTGTSSDVGGYNFVSWYQQHPGKAPKLMIYDVSDRPSGVSDRFSGSKSGNTASLIISGLQADDEADYYCSSYGSSSTHVIFGGGTKVTVLGGGSDAHKSEVAHRFKDLGEENFKALVLIAFAQYLQQCPFEDHVKLVNEVTEFAKTCVADESAENCDKSLHTLFGDKLCTVATLRETYGEMADCCAKQEPERNECFLQHKDDNPNLPRLVRPEVDVMCTAFHDNEETFLKKYLYEIARRHPYFYAPELLFFAKRYKAAFTECCQAADKAACLLPKLDELRDEGKASSAKQRLKCASLQKFGERAFKAWAVARLSQRFPKAEFAEVSKLVTDLTKVHTECCHGDLLECADDRADLAKYICENQDSISSKLKECCEKPLLEKSHCIAEVENDEMPADLPSLAADFVESKDVCKNYAEAKDVFLGMFLYEYARA
chain 2: not shown
notes: also called variant 1378; anti-Her3xHer2 ABH2
Human FcRn (hFcRn)
  Kd: 970 nM

B3: Albumin based Transporter polypeptide 1-Ver 1 (ABH1 fragment, albumin 1:293) (other)
chain: DAHKSEVAHRFKDLGEENFKALVLIAFAQYLQQCPFEDHVKLVNEVTEFAKTCVADESAENCDKSLHTLFGDKLCTVATLRETYGEMADCCAKQEPERNECFLQHKDDNPNLPRLVRPEVDVMCTAFHDNEETFLKKYLYEIARRHPYFYAPELLFFAKRYKAAFTECCQAADKAACLLPKLDELRDEGKASSAKQRLKCASLQKFGERAFKAWAVARLSQRFPKAEFAEVSKLVTDLTKVHTECCHGDLLECADDRADLAKYICENQDSISSKLKECCEKPLLEKSHCIAEV
notes: also called ABH1 transporter polypeptide A; ABH1 fragment 1
[1]
  binding result: no binding
